Blank lines part the entries; values can stand above or below the molecule they belong to.
Legend:
[1] = molecular target: TRFE receptor, TRF1, on Rat2 fibroblasts (rat) (UniProt Q99376); assay: HATRIC-LRC (LRC-TriCEPS) ligand-receptor capture on Rat2 fibroblasts, LC-MS/MS; positive control of the screen
[2] = molecular target: PTK7 on Rat2 fibroblasts (rat); assay: HATRIC-LRC (LRC-TriCEPS) ligand-receptor capture on Rat2 fibroblasts, LC-MS/MS; reference BSA control ligand
[3] = molecular target: CCN1 found in the Rat2 cell screen (rat) (UniProt Q9ES72); assay: as above
[4] = molecular target: GPC1 on Rat2 fibroblasts (rat) (UniProt P35053); assay: as above
[5] = molecular target: PTK7 on Rat2 fibroblasts (rat); assay: HATRIC-LRC (LRC-TriCEPS) ligand-receptor capture on Rat2 fibroblasts, LC-MS/MS; reference TRFE control ligand
[6] = molecular target: CCN1 found in the Rat2 cell screen (rat) (UniProt Q9ES72); assay: as above
[7] = molecular target: GPC1 on Rat2 fibroblasts (rat) (UniProt P35053); assay: as above
[8] = molecular target: GPC1 on HEK293A cells (human) (UniProt P35052); assay: HATRIC-LRC (LRC-TriCEPS) ligand-receptor capture on HEK293A cells, LC-MS/MS; reference TRFE control ligand
[9] = molecular target: PTK7 on HEK293A cells (human) (UniProt Q13308); assay: as above
[10] = molecular target: CCN1 found in the HEK293A cell screen (human) (UniProt O00622); assay: as above
[11] = molecular target: GPC4 on HEK293A cells (human) (UniProt O75487); assay: as above
[12] = molecular target: GPC1 on HEK293A cells (human) (UniProt P35052); assay: HATRIC-LRC (LRC-TriCEPS) ligand-receptor capture on HEK293A cells, LC-MS/MS; reference BSA control ligand
[13] = molecular target: PTK7 on HEK293A cells (human) (UniProt Q13308); assay: as above
[14] = molecular target: CCN1 found in the HEK293A cell screen (human) (UniProt O00622); assay: as above
[15] = molecular target: GPC4 on HEK293A cells (human) (UniProt O75487); assay: as above

UniProt P35053, sequence (P35053 24-530): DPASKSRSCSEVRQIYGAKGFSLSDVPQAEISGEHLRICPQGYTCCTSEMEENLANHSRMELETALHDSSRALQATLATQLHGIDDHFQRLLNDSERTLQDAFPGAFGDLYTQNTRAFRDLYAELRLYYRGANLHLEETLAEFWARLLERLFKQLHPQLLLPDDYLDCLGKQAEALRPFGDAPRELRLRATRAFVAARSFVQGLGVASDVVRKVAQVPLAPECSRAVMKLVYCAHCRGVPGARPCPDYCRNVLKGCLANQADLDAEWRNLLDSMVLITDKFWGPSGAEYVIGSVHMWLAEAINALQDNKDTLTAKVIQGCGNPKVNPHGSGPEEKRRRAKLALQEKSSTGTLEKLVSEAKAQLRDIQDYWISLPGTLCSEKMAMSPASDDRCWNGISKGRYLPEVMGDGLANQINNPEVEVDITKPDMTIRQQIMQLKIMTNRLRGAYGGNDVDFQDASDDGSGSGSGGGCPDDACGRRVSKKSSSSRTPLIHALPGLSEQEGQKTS
UniProt Q13308, sequence (Q13308 31-1070 limits assumed): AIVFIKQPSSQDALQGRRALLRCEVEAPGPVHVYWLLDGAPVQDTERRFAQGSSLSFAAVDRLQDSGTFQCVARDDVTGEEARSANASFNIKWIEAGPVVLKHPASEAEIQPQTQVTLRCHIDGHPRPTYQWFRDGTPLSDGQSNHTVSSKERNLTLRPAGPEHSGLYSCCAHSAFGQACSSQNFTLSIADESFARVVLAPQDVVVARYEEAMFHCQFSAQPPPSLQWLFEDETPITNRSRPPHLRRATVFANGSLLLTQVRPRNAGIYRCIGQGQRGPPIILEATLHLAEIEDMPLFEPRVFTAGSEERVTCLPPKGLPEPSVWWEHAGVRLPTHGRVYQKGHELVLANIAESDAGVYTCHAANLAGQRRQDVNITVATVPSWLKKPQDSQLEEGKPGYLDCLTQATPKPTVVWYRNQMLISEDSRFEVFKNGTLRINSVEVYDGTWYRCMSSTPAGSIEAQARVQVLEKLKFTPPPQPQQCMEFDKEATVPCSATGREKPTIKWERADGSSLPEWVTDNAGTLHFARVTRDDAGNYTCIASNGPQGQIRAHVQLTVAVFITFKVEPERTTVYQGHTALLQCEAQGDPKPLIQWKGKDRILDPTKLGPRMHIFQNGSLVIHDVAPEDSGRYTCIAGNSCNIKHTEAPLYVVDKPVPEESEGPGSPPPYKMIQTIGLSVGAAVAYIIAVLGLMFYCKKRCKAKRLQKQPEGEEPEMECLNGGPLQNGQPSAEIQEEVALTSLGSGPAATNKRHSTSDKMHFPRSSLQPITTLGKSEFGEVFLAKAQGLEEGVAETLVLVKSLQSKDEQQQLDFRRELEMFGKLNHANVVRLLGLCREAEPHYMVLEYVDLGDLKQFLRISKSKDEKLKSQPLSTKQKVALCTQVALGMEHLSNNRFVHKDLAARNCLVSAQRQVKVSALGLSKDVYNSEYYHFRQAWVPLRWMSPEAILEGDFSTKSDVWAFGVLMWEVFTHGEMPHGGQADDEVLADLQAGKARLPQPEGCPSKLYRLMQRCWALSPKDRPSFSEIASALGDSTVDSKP
UniProt O00622, sequence (O00622 25-381 limits assumed): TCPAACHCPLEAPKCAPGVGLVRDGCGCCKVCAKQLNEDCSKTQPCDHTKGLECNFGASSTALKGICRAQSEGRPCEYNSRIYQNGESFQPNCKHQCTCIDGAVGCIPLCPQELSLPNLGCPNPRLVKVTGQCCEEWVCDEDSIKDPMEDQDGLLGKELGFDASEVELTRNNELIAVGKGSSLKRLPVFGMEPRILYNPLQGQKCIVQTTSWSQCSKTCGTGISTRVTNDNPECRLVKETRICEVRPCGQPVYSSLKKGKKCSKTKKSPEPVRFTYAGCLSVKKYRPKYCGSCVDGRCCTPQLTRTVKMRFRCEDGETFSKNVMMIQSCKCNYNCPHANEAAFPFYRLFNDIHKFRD
UniProt Q9ES72, sequence (Q9ES72 25-379 limits assumed): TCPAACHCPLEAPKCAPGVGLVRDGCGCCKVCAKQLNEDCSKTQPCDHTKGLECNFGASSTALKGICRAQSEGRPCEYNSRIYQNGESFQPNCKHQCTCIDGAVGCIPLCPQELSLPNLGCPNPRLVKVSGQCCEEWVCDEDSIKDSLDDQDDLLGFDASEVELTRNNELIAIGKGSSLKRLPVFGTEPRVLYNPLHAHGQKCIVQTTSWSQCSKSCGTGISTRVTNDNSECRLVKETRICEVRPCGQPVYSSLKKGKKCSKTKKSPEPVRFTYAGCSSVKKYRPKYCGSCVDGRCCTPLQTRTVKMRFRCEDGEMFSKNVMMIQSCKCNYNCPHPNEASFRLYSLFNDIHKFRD
UniProt P35052, sequence (P35052 24-530 limits assumed): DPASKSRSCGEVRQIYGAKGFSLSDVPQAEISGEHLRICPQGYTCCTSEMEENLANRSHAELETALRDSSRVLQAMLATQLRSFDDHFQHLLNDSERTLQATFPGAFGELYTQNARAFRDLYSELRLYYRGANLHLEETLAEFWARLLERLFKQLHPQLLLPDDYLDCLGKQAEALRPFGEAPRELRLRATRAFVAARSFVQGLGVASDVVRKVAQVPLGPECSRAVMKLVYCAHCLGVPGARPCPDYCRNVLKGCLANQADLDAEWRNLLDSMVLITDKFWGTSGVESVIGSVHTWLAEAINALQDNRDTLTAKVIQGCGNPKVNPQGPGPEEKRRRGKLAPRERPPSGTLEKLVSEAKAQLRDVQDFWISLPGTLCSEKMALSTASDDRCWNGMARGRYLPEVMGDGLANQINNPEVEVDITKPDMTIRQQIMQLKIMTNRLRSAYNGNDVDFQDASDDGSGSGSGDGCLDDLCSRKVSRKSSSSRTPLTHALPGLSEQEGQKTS
UniProt O75487, sequence (O75487 19-529 limits assumed): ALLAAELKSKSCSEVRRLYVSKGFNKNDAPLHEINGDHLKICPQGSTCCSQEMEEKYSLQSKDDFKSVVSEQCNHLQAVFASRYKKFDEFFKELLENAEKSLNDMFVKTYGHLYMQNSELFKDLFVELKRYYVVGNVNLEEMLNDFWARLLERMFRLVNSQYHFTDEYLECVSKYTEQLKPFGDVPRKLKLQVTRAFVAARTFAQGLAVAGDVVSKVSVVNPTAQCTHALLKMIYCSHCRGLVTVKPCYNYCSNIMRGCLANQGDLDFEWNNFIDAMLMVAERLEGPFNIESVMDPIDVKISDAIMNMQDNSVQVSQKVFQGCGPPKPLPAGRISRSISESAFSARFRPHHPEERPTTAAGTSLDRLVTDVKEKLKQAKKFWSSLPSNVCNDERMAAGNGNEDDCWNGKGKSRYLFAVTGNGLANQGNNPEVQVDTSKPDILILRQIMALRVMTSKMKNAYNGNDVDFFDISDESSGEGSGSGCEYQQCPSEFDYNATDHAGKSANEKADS
UniProt Q99376, sequence (Q99376 whole entry): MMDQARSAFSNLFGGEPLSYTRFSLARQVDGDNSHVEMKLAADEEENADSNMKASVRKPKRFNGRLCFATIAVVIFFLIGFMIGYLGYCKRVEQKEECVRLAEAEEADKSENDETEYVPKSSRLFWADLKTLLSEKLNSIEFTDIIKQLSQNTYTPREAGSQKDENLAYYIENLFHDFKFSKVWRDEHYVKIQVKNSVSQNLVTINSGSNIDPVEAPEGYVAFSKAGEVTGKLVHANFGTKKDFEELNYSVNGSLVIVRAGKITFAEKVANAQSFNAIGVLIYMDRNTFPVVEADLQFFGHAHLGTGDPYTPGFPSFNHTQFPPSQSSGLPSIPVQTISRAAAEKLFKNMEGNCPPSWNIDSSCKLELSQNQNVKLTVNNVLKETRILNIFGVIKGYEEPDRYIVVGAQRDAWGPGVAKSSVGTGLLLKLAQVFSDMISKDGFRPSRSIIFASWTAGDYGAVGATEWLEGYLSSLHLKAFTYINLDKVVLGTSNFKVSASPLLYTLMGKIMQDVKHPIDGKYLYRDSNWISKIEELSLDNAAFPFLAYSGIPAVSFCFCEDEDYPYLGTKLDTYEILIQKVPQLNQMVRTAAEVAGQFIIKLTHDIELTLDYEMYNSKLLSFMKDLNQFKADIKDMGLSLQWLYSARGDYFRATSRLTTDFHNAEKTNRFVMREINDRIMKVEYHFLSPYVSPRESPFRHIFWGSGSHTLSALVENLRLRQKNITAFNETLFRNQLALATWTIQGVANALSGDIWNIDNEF

log 2 (FC), TRFE group against d34CCN2 group (log2 fold change) [1]: -2.8
Molecule: transferrin (TRFE) coupled to TriCEPS v3.0 (ligand)

log 2 (FC) enrichment relative to BSA (log2 fold change) [2]: 2.7
log 2 (FC) enrichment relative to BSA (log2 fold change) [3]: 3.4
log 2 (FC) enrichment relative to BSA (log2 fold change) [4]: 4.2
log 2 (FC) enrichment relative to TRFE (log2 fold change) [5]: 3
log 2 (FC) enrichment relative to TRFE (log2 fold change) [6]: 4.1
log 2 (FC) enrichment relative to TRFE (log2 fold change) [7]: 4.4
log 2 (FC) enrichment relative to TRFE (log2 fold change) [8]: 4.19
log 2 (FC) enrichment relative to TRFE (log2 fold change) [9]: 3.09
log 2 (FC) enrichment relative to TRFE (log2 fold change) [10]: 4.73
log 2 (FC) enrichment relative to TRFE (log2 fold change) [11]: 2.84
log 2 (FC) enrichment relative to BSA (log2 fold change) [12]: 2.85
log 2 (FC) enrichment relative to BSA (log2 fold change) [13]: 3.26
log 2 (FC) enrichment relative to BSA (log2 fold change) [14]: 5.63
log 2 (FC) enrichment relative to BSA (log2 fold change) [15]: 2.85
B1: recombinant, human C-terminal (domains III-IV) CCN2 coupled to TriCEPS v3.0 (ligand, UniProt P29279 197-349, looked up)
chain: ANCLVQTTEWSACSKTCGMGISTRVTNDNASCRLEKQSRLCMVRPCEADLEENIKKGKKCIRTPKISKPIKFELSGCTSMKTYRAKFCGVCTDGRCCTPHRTTTLPVEFKCPDGEVMKKNMMFIKTCACHYNCPGDNDIFESLYYRKMYGDMA
modifications: coupled to the trifunctional TriCEPS v3.0 molecule (site of coupling not stated)

Reference: US20260041702A1
